The values that follow come from patent publication US20030186847A1, “Insulin derivatives and synthesis thereof” (priority 2000, published 2003).

Values joined by “and” are separate entries in the source; they are usually repeats but may differ in a detail not shown here. Equal values may be shown once.

Data set [1] deals with T1, insulin receptors on LPM (Rattus norvegicus, UniProt P15127).
T1 construct: isolate plasma membrane fractions from fresh rat livers; from tissue; host or cells: rat liver plasma membrane (microsomal light fraction)
T1 sequence (P15127 27-759 limits assumed): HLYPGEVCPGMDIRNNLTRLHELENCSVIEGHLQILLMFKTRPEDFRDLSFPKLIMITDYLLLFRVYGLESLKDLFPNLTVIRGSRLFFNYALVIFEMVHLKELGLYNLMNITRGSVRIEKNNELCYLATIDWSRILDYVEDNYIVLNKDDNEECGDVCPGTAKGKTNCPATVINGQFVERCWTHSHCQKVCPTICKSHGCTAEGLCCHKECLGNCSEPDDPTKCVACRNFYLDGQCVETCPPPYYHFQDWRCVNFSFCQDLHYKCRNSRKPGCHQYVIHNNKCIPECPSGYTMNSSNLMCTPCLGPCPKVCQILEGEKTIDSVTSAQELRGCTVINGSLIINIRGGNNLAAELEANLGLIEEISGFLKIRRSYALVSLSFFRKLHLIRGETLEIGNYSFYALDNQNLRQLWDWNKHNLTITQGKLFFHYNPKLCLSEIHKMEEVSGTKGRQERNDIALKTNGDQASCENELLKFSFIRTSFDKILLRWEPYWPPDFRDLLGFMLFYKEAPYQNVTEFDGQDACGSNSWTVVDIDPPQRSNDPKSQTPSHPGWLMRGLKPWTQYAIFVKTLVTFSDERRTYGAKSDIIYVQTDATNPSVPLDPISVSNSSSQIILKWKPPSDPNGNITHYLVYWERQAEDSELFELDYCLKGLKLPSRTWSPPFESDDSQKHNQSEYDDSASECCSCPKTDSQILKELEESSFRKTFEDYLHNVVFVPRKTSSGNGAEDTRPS
The data set is described as follows: Equilibrium binding assay: inhibition of [125I]insulin binding to rat liver plasma membrane (LPM). Conditions: absence of THBPs.
Excerpt: Rat liver plasma membrane (LPM) was isolated to be used in equilibrium binding assays as the source of insulin receptors.
This equilibrium binding assay determines the analogues affinity to the insulin receptors on the LPM, both in the presence and absence of the THBPs. […] The amount of bound tracer was counted in the γ counter after separating the bound and free species by centrifugation.
For the binding assays performed in the presence THBP, shifts in the binding curves and the changes in ED50s and RPE are described relative to binging of the same analogue in the absence of THBP.

The target in data set [2] is T2, plasma protein thyroxine binding globulin (TBG) (Homo sapiens, UniProt P05543).
T2 sequence (P05543 21-415): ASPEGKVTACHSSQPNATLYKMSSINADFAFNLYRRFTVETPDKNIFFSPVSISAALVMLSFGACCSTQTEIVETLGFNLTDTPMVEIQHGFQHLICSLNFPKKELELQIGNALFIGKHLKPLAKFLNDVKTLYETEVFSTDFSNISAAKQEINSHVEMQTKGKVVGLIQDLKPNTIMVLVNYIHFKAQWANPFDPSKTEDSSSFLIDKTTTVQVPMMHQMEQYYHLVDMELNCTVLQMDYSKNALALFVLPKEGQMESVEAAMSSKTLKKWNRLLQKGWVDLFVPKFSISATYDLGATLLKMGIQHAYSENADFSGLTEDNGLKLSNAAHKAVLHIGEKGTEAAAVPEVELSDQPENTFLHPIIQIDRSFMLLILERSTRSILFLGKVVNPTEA
The data set is described as follows: IAsys optical biosensor kinetic binding to immobilized TBG. Conditions: control, 500 μg/ml.
Description: The optical bio-sensor IAsys makes it possible to record biomolecular interactions in real time and thus kinetical studies.
The surface of the cuvette is covered with a carboxymethylated dextran matrix (CMD), to which the plasma protein TBG is immobilized.
Immobilization of TBG to the carboxymethylated matrix is detected via the change of the resonance angle.
For the kinetical studies the Thyroid-Insulin conjugates were injected into the microcuvette in dilution series of 200, 300, 400 and 500 μg/ml in HBS/Tween-buffer at 25° C. To test for reproducibility, all measurements were repeated 3 times.
Determination of “on-rate” constants kon at various ligand concentrations cL allow kon to be plotted against cL according to equation (4). This gives the association rate constant kA from the slope and the dissociation rate constant kD at C2=O. It has, however, to be taken into account that the error of kD becomes too large when kD<0,01 s^−1 (IAsys, METHODS GUIDE).
The association and dissociation curves of the 3 Thyroid-Insulin-conjugates indicated in Table 3 were analyzed with the program Fast-fit.
Evaluation of dissociation was also via single phase curve-fitting, for the same reasons as above.

Data set [3] has as its system normal human serum (TBG, albumin, prealbumin). The data set is described as follows: FPLC binding to THBPs after overnight incubation, IRI by RIA: normal human serum. The class given is in vitro ADME. Conditions: normal human serum undiluted. The protocol:
To ascertain the binding of the insulin or the analogue to the thyroid hormone binding proteins (THBPs), they were incubated overnight at 4° C. The bound and unbound species were separated by molecular weight with FPLC.
Solutions (0.5 ml) of THBPs were prepared in FPLC buffer as follows and then vortexed:
It was vortexed and incubated at 4° C. for ≈16 hours or overnight. Before FPLC, it was vortexed again, and filtered through a syringe filter of pore size 0.2 μm (Acrodisc® LC13 PVDF from Gelman, UK) to remove bacteria and serum precipitates.
The fraction tubes (LP3 tubes) were coated with 50 μl 3% (w/v) HSA to prevent the analogues from adsorbing to the tubes' inner surfaces. The fraction size was programmed as 0.50 ml. Immunoreactive insulin in each fraction was assayed with radioimmunoassay on the same day.
IRI content in each fraction was assayed by RIA.
FIGS. 3a-d show the elution profiles of the conjugates after overnight incubation with 5% human serum albumin (HSA). […] The calculated % bound and % free values are included in Table 3. Appearances of the THBPS, as detected by UV absorbance on the original chromatogram (which was not sensitive enough to detect the analogues) are also indicated as arrows on the elution profiles. The shadowed box represents the bound fractions; the clear box represents free fractions.

Data set [4] has as its target T3, TBG (thyroxine binding globulin) (Homo sapiens, UniProt P05543).
T3 sequence (P05543 21-415): T2 sequence (P05543 21-415)
The data set is described as follows: FPLC binding to THBPs after overnight incubation, IRI by RIA: TBG. Conditions: TBG 0.238 μM.

The subject of data set [5] is primary antibody W12 (polyclonal anti-insulin antibody). In words: Double-antibody radioimmunoassay: inhibition of [125I]insulin binding to primary antibody W12. More on the design: species or system guinea-pig. Conditions: standard solutions, RIA.
Description: The assay was calibrated using insulin standards. […] A double dispenser (Dilutrend, Boehringer Corporation London Ltd) was used to add the appropriate volume of buffer and standard or FPLC fractions into the labelled LP3 tubes. The total volume of each tube was 500 μl. In addition, three tubes of NSB (non-specific binding), containing the standardized HSA concentration, were prepared with, Barbitone/HSA(0.2% w/v) and FPLC/Barbitone/HSA buffers. […] The radioactivity in 100 μl of the resulting tracer solution was counted in the γ-counter, and the counts per minute (cpm) should lie between 3000-5000 cpm. ANSA (2 mg/ml) was dissolved in the solution, and it functioned to displace the T4 moieties on the analogues from the THBPs, since the THBP could be shielding the insulin moiety that was to be assayed. Finally, 100 μl of this solution was added to every tube. The primary antibody, [MUT], is a polyclonal, guinea-pig anti-insulin antibody. […] It was diluted to 1:45,000 in Barbitone/HSA(0.2% w/v) buffer, and 100 μl was added to every tube, except the TC and NSB tubes. […] Finally, the samples, together with the TC and NSB tubes, were counted in the γ-counter using a programme for […] ). Double antibody RIA was used to quantify the immunoreactive insulin (IRI) in the FPLC fractions.

For the substance “H-Ins: unmodified (native, human) insulin used as control and reference”, the “Mean ED50 ± SEM” value in data set [1] was found to be 8.49 ± 0.69 nM. Besides, in data set [2], the “association to immobilized TBG” value was “association cannot be observed”. In addition, the “Mean % Free (fractions 15.5-25 ml)” value is listed as 98.39% in data set [3] and 90.15% in data set [4]. The “Mean % Bound (fractions 5.5-15 ml)” value in data set [3] (n = 3) was 1.61 ± 0.47%; in data set [4] (n = 3) it was 9.85% and 9.85 ± 2.14%. Moreover, the “ED50, inhibition of [125I]insulin binding to W12” value in data set [5] is 1.065 nM.
